The test deals with AHAS minus E. coli. In words: E. coli complementation assay, Arabidopsis AHASL mutants (AE plasmids) with imazethapyr. It is filed as cell-based. Conditions: colony size scored visually in the presence of imazethapyr. An excerpt: Vectors AE10 through AE24 were made as follows. The wild type Arabidopsis thaliana AHAS large subunit gene was amplified under mutagenic conditions using the Genemorph II random mutagenesis kit (Stratagene, La Jolla, Calif.), resulting in randomly mutagenized amplified DNA fragments of this gene. This mutant DNA was then cloned back into AE7, replacing the wild type A. thaliana large subunit gene (between the unique SacII and AgeI sites on AE7) with the mutagenized forms. This DNA was transformed into E. coli strain TOP10 and selected on LB agar medium in such a fashion as to have a large number of unique transformants, each with independent, mutagenized AHAS genes. These colonies were scraped together and plasmid DNA was prepared from this entire primary library. This DNA was transformed into AHAS minus E. coli and again selected on LB agar media with carbenicillin. Plasmid positive colonies from this step were replica plated using velveteen onto minimal agar medium without branched chain amino acids and containing 30-micromolar imazethapyr.
The DNA sequence of the A. thaliana AHAS large subunit gene was determined for each of the growth positive colonies. […] Because the AHAS function and imidazolinone tolerance screen was on a secondary library, replicates of the same mutations were found, as determined by DNA sequence analysis. […]

B1: AE7: E. coli expression plasmid, Arabidopsis AHASL wild type (protein, UniProt P17597 56-670, looked up)
Acetolactate synthase, …: SSSPSSISAVLNTTTNVTTTPSPTKPTKPETFISRFAPDQPRKGADILVEALERQGVETVFAYPGGASMEIHQALTRSSSIRNVLPRHEQGGVFAAEGYARSSGKPGICIATSGPGATNLVSGLADALLDSVPLVAITGQVPRRMIGTDAFQETPIVEVTRSITKHNYLVMDVEDIPRIIEEAFFLATSGRPGPVLVDVPKDIQQQLAIPNWEQAMRLPGYMSRMPKPPEDSHLEQIVRLISESKKPVLYVGGGCLNSSDELGRFVELTGIPVASTLMGLGSYPCDDELSLHMLGMHGTVYANYAVEHSDLLLAFGVRFDDRVTGKLEAFASRAKIVHIDIDSAEIGKNKTPHVSVCGDVKLALQGMNKVLENRAEELKLDFGVWRNELNVQKQKFPLSFKTFGEAIPPQYAIKVLDELTDGKAIISTGVGQHQMWAAQFYNYKKPRQWLSSGGLGAMGFGLPAAIGASVANPDAIVVDIDGDGSFIMNVQELATIRVENLPVKVLLLNNQHLGMVMQWEDRFYKANRAHTFLGDPAQEDEIFPNMLLFAAACGIPAARVTKKADLREAIQTMLDTPGPYLLDVICPHQEHVLPMIPSGGTFNDVITEGDGRIKY
As for B1, the “E. coli Imazethapyr Tolerance Score” value is “− (IN)”.

The values are drawn from US20150299726A1, “AHAS MUTANTS” (BASF PLANT SCIENCE GMBH, priority 2007, published 2015).
